Columns and labels:
[1] = test system: HeLa Kyoto; assay: melting temperature (median over replicates), in situ; higher = more thermally stable
[2] = test system: HeLa Kyoto; assay: solubility in G1/S (NP-40 vs SDS abundance) (log2 ratio); higher = more soluble; details: cell cycle stage: G1/S
[3] = test system: HeLa Kyoto; assay: solubility change mitosis vs G1/S (difference of NP-40 vs SDS log2 ratios) (log2 ratio difference); higher = more soluble in mitosis
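Wherever melting temperature (median over replicates), in situ is given: HeLa Kyoto cells synchronized by double thymidine or nocodazole block, proteins quantified by TMT10plex mass spectrometry, three independent biological replicates.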
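Wherever solubility change mitosis vs G1/S (difference of NP-40 vs SDS log2 ratios) is given: synchronized HeLa Kyoto cells (double thymidine block for G1/S, nocodazole release for mitosis), protein amounts in NP-40 versus SDS lysates quantified by mass spectrometry, three biological replicates.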
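Wherever solubility in G1/S (NP-40 vs SDS abundance) is given: HeLa Kyoto cells arrested at G1/S by double thymidine block, proteins quantified by TMT10plex mass spectrometry in mild NP-40 versus SDS extracts, three biological replicates.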

Chain of PCBD2 (chain, as listed by the source): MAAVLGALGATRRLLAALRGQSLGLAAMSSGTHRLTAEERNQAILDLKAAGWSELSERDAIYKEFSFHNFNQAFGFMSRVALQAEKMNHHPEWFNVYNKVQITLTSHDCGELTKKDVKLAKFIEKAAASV
Chain of WRN (chain, as listed by the source): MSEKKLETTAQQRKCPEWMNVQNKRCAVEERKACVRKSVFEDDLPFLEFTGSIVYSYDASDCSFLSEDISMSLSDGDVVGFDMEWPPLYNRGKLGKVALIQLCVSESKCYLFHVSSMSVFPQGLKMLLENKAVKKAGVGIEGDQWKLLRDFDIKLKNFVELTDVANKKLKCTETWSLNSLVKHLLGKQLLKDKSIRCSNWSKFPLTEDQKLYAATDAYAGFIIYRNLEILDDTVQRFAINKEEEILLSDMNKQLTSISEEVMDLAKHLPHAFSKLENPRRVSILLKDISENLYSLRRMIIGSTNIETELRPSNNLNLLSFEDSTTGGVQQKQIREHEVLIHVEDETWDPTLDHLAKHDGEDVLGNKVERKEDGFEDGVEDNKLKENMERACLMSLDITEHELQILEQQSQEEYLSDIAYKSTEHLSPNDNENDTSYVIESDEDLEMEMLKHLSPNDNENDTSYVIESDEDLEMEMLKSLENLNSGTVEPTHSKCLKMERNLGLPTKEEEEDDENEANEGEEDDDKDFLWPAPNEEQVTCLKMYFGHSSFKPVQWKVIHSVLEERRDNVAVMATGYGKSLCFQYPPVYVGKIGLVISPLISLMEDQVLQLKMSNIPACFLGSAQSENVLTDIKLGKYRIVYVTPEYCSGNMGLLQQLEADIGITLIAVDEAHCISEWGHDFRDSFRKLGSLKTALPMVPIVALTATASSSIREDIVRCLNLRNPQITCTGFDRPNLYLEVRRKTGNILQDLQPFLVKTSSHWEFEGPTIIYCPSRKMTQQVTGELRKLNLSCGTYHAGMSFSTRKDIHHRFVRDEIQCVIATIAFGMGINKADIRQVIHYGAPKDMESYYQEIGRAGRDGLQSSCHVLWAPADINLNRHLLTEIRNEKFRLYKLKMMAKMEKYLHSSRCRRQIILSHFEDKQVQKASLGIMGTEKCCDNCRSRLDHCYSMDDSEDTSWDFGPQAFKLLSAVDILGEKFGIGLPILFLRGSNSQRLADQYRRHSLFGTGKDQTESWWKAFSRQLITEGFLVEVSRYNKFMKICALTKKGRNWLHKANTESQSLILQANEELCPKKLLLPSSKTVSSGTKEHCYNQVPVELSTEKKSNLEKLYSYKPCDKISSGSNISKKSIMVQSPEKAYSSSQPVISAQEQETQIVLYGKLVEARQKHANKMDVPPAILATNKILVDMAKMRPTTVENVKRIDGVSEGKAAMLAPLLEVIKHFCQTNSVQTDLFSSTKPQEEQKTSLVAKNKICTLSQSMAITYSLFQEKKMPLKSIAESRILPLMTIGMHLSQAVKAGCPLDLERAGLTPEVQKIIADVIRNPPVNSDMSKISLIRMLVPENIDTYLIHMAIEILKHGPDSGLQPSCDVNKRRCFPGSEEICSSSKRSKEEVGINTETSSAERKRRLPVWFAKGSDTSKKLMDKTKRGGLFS
Chain of NEK6 (chain, as listed by the source): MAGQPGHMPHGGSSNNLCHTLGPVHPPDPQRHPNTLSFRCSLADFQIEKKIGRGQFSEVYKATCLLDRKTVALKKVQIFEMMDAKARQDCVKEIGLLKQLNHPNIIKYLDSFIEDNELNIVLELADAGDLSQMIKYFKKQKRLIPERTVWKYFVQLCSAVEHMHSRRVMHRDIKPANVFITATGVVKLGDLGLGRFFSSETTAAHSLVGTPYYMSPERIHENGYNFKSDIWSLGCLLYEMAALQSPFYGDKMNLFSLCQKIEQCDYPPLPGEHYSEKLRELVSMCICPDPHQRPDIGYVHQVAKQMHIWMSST
Chain of WWC1 (chain, as listed by the source): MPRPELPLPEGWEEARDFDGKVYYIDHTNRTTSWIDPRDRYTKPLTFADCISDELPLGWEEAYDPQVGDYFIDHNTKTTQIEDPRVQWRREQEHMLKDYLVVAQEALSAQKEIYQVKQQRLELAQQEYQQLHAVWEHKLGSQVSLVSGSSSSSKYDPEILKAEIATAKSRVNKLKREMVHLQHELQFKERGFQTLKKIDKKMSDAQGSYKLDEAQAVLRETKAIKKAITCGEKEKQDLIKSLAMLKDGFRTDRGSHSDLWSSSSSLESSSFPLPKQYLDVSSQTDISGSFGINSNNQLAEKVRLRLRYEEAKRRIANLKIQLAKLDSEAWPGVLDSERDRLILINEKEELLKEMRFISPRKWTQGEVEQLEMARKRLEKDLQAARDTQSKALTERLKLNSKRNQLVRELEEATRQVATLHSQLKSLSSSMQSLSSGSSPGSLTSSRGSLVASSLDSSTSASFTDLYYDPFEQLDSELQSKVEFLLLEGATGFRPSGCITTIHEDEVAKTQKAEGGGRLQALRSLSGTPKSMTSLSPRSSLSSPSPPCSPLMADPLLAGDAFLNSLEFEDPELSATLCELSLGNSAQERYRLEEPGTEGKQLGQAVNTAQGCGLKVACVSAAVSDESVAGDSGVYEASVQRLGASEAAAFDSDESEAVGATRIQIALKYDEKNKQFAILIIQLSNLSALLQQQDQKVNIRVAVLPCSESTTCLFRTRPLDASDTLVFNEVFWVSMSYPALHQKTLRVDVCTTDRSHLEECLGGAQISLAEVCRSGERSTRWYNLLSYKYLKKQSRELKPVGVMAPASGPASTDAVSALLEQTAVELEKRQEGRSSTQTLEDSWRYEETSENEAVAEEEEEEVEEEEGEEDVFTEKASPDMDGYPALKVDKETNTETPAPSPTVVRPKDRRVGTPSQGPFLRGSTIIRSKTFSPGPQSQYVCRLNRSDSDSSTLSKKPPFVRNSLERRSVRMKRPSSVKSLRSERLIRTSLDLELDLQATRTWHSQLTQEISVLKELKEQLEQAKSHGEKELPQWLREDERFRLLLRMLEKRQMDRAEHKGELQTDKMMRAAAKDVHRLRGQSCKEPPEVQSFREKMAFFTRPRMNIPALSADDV
Chain of PCIF1 (chain, as listed by the source): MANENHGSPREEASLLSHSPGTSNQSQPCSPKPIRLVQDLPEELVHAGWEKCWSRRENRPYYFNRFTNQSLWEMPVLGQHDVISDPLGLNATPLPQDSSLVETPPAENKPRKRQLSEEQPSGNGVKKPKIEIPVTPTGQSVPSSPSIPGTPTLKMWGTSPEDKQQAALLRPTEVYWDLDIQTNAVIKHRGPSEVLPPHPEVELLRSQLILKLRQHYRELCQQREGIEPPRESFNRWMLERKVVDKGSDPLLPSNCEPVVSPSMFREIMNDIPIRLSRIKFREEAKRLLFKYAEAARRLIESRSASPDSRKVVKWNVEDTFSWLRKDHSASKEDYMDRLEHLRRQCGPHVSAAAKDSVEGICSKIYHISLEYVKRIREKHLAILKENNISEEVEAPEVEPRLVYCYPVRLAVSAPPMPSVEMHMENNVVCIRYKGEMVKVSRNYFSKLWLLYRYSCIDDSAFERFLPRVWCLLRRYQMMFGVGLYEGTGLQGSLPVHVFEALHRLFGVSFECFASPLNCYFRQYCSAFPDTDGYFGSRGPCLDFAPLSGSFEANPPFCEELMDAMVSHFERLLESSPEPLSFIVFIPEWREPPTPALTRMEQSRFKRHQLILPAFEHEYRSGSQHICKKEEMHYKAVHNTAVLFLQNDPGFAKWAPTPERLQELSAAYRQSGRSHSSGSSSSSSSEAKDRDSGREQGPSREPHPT

Substance	melting temperature ([1]; cell cycle stage: G1/S)	melting temperature ([1]; cell cycle stage: mitosis)	solubility in G1/S (log2) [2]	solubility change mitosis (log2) [3]
ASAP2	50.7 °C	51.4 °C	0.122	-0.37
ATG2B	–	53.4 °C	-0.312	0.00813
CEP250	51 °C	50.8 °C	-0.0371	0.272
KIF13B	50.2 °C	50.3 °C	-0.0369	-0.193
MAAAAPGNGRASAPRLLLLFLVPLLWAPAAVRAGPDEDLSHRNKEPPAPAQQLQPQPVAVQGPEPARVEKIFTPAAPVHTNKEDPATQTNLGFIHAFVAAISVIIVSELGDKTFFIAAIMAMRYNRLTVLAGAMLALGLMTCLSVLFGYATTVIPRVYTYYVSTVLFAIFGIRMLREGLKMSPDEGQEELEEVQAELKKKDEEFQRTKLLNGPGDVETGTSITVPQKKWLHFISPIFVQALTLTFLAEWGDRSQLTTIVLAAREDPYGVAVGGTVGHCLCTGLAVIGGRMIAQKISVRTVTIIGGIVFLAFAFSALFISPDSGF [TMEM165]	60.8 °C	56.9 °C	0.0487	-0.178
MAAAPQAPGRGSLRKTRPLVVKTSLNNPYIIRWSALESEDMHFILQTLEDRLKAIGLQKIEDKKKKNKTPFLKKESREKCSIAVDISENLKEKKTDAKQQVSGWTPAHVRKQLAIGVNEVTRALERRELLLVLVCKSVKPAMITSHLIQLSLSRSVPACQVPRLSERIAPVIGLKCVLALAFKKNTTDFVDEVRAIIPRVPSLSVPWLQDRIEDSGENLETEPLESQDRELLDTSFEDLSKPKRKLADGRQASVTLQPLKIKKLIPNPNKIRKPPKSKKATPK [RPP38]	53.1 °C	51.7 °C	0.342	-0.0549
MAAFRDIEEVSQGLLSLLGANRAEAQQRRLLGRHEQVVERLLETQDGAEKQLREILTMEKEVAQSLLNAKEQVHQGGVELQQLEAGLQEAGEEDTRLKASLLQLTRELEELKEIEADLERQEKEVDEDTTVTIPSAVYVAQLYHQVSKIEWDYECEPGMVKGIHHGPSVAQPIHLDSTQLSRKFISDYLWSLVDTEW [SPC24]	49.2 °C	49.4 °C	-0.0462	0.363
MAAGKFASLPRNMPVNHQFPLASSMDLLSSRSPLAEHRPDAYQDVSIHGTLPRKKKGPPPIRSCDDFSHMGTLPHSKSPRQNSPVTQDGIQESPWQDRHGETFTFRDPHLLDPTVEYVKFSKERHIMDRTPEKLKKELEEELLLSSEDLRSHAWYHGRIPRQVSENLVQRDGDFLVRDSLSSPGNFVLTCQWKNLAQHFKINRTVLRLSEAYSRVQYQFEMESFDSIPGLVRCYVGNRRPISQQSGAIIFQPINRTVPLRCLEEHYGTSPGQAREGSLTKGRPDVAKRLSLTMGGVQAREQNLPRGNLLRNKEKSGSQPACLDHMQDRRALSLKAHQSESYLPIGCKLPPQSSGVDTSPCPNSPVFRTGSEPALSPAVVRRVSSDARAGEALRGSDSQLCPKPPPKPCKVPFLKVPSSPSAWLNSEANYCELNPAFATGCGRGAKLPSCAQGSHTELLTAKQNEAPGPRNSGVNYLILDDDDRERPWEPAAAQMEKGQWDKGEFVTPLLETVSSFRPNEFESKFLPPENKPLETAMLKRAKELFTNNDPKVIAQHVLSMDCRVARILGVSEEMRRNMGVSSGLELITLPHGHQLRLDIIERHNTMAIGIAVDILGCTGTLEDRAATLSKIIQVAVELKDSMGDLYSFSALMKALEMPQITRLEKTWTALRHQYTQTAILYEKQLKPFSKLLHEGRESTCVPPNNVSVPLLMPLVTLMERQAVTFEGTDMWEKNDQSCEIMLNHLATARFMAEAADSYRMNAERILAGFQPDEEMNEICKTEFQMRLLWGSKGAQVNQTERYEKFNQILTALSRKLEPPPVKQAEL [BCAR3]	46.3 °C	50.1 °C	0.00142	0.0356
MVAWRSAFLVCLAFSLATLVQRGSGDFDDFNLEDAVKETSSVKQPWDHTTTTTTNRPGTTRAPAKPPGSGLDLADALDDQDDGRRKPGIGGRERWNHVTTTTKRPVTTRAPANTLGNDFDLADALDDRNDRDDGRRKPIAGGGGFSDKDLEDIVGGGEYKPDKGKGDGRYGSNDDPGSGMVAEPGTIAGVASALAMALIGAVSSYISYQQKKFCFSIQQGLNADYVKGENLEAVVCEEPQVKYSTLHTQSAEPPPPPEPARI [CD99L2]	–	–	-0.143	-0.147
MVLLHVKRGDESQFLLQAPGSTELEELTVQVARVYNGRLKVQRLCSEMEELAEHGIFLPPNMQGLTDDQIEELKLKDEWGEKCVPSGGAVFKKDDIGRRNGQAPNEKMKQVLKKTIEEAKAIISKKQVEAGVCVTMEMVKDALDQLRGAVMIVYPMGLPPYDPIRMEFENKEDLSGTQAGLNVIKEAEAQLWWAAKELRRTKKLSDYVGKNEKTKIIAKIQQRGQGAPAREPIISSEEQKQLMLYYHRRQEELKRLEENDDDAYLNSPWADNTALKRHFHGVKDIKWRPR [C21ORF59]	–	–	0.335	0.0264
MVMAALSLVAACWGRAAADESVQLPAAPGSSVRARETMVSVTMATSEWIQFFKEAGIPPGPAVNYAVMFVDNRIQKSMLLDLNKEIMNELGVTVVGDIIAILKHAKVVHRQDMCKAATESVPCSPSPLAGEIRRGTSAASRMITNSLNHDSPPSTPPRRPDTSTSKISVTVSNKMAAKSAKATAALARREEESLAVPAKRRRVTAEMEGKYVINMPKGTTPRTRKILEQQQAAKGLHRTSVFDRLGAETKADTTTGSKPTGVFSRLGATPETDEDLAWDSDNDSSSSVLQYAGVLKKLGRGPAKASPQPALTVKAKATSSATTAAAPTLRRLALSSRSGLERKPESLSKVSIIKRLGAAALVPEAQDSQVTSTKSKSSAEVKVTIKRTLVGPRGSSSSEGLGAQMDHAGTVSVFKRLGRRTF [C19ORF47]	–	–	-0.824	1.04
MVRTKADSVPGTYRKVVAARAPRKVLGSSTSATNSTSVSSRKAENKYAGGNPVCVRPTPKWQKGIGEFFRLSPKDSEKENQIPEEAGSSGLGKAKRKACPLQPDHTNDEKE [KIAA0101]	–	–	-0.0358	0.256
MVVLRSSLELHNHSAASATGSLDLSSDFLSLEHIGRRRLRSAGAAQKKPAATTAKAGDGSSVKEVETYHRTRALRSLRKDAQNSSDSSFEKNVEITEQLANGRHFTRQLARQQADKKKEEHREDKVIPVTRSLRARNIVQSTEHLHEDNGDVEVRRSCRIRSRYSGVNQSMLFDKLITNTAEAVLQKMDDMKKMRRQRMRELEDLGVFNETEESNLNMYTRGKQKDIQRTDEETTDNQEGSVESSEEGEDQEHEDDGEDEDDEDDDDDDDDDDDDDDEDDEDEEDGEEENQKRYYLRQRKATVYYQAPLEKPRHQRKPNIFYSGPASPARPRYRLSSAGPRSPYCKRMNRRRHAIHSSDSTSSSSSEDEQHFERRRKRSRNRAINRCLPLNFRKDELKGIYKDRMKIGASLADVDPMQLDSSVRFDSVGGLSNHIAALKEMVVFPLLYPEVFEKFKIQPPRGCLFYGPPGTGKTLVARALANECSQGDKRVAFFMRKGADCLSKWVGESERQLRLLFDQAYQMRPSIIFFDEIDGLAPVRSSRQDQIHSSIVSTLLALMDGLDSRGEIVVIGATNRLDSIDPALRRPGRFDREFLFSLPDKEARKEILKIHTRDWNPKPLDTFLEELAENCVGYCGADIKSICAEAALCALRRRYPQIYTTSEKLQLDLSSINISAKDFEVAMQKMIPASQRAVTSPGQALSTVVKPLLQNTVDKILEALQRVFPHAEFRTNKTLDSDISCPLLESDLAYSDDDVPSVYENGLSQKSSHKAKDNFNFLHLNRNACYQPMSFRPRILIVGEPGFGQGSHLAPAVIHALEKFTVYTLDIPVLFGVSTTSPEETCAQVIREAKRTAPSIVYVPHIHVWWEIVGPTLKATFTTLLQNIPSFAPVLLLATSDKPHSALPEEVQELFIRDYGEIFNVQLPDKEERTKFFEDLILKQAAKPPISKKKAVLQALEVLPVAPPPEPRSLTAEEVKRLEEQEEDTFRELRIFLRNVTHRLAIDKRFRVFTKPVDPDEVPDYVTVIKQPMDLSSVISKIDLHKYLTVKDYLRDIDLICSNALEYNPDRDPGDRLIRHRACALRDTAYAIIKEELDEDFEQLCEEIQESRKKRGCSSSKYAPSYYHVMPKQNSTLVGDKRSDPEQNEKLKTPSTPVACSTPAQLKRKIRKKSNWYLGTIKKRRKISQAKDDSQNAIDHKIESDTEETQDTSVDHNETGNTGESSVEENEKQQNASESKLELRNNSNTCNIENELEDSRKTTACTELRDKIACNGDASSSQIIHISDENEGKEMCVLRMTRARRSQVEQQQLITVEKALAILSQPTPSLVVDHERLKNLLKTVVKKSQNYNIFQLENLYAVISQCIYRHRKDHDKTSLIQKMEQEVENFSCSR [ATAD2]	–	–	-3.07	2.36
MVYISNGQVLDSRSQSPWRLSLITDFFWGIAEFVVLFFKTLLQQDVKKRRSYGNSSDSRYDDGRGPPGNPPRRMGRINHLRGPSPPPMAGGUGR [SELK]	–	–	0.000519	0.31
MWCLHCNSERTQSLLELELDSGVEGEAPSSETGTSLDSPSAYPQGPLVPGSSLSPDHYEHTSVGAYGLYSGPPGQQQRTRRPKLQHSTSILRKQAEEEAIKRSRSLSESYELSSDLQDKQVEMLERKYGGRLVTRHAARTIQTAFRQYQMNKNFERLRSSMSENRMSRRIVLSNMRMQFSFEGPEKVHSSYFEGKQVSVTNDGSQLGALVSPECGDLSEPTTLKSPAPSSDFADAITELEDAFSRQVKSLAESIDDALNCRSLHTEEAPALDAARARDTEPQTALHGMDHRKLDEMTASYSDVTLYIDEEELSPPLPLSQAGDRPSSTESDLRLRAGGAAPDYWALAHKEDKADTDTSCRSTPSLERQEQRLRVEHLPLLTIEPPSDSSVDLSDRSERGSLKRQSAYERSLGGQQGSPKHGPHSGAPKSLPREEPELRPRPPRPLDSHLAINGSANRQSKSESDYSDGDNDSINSTSNSNDTINCSSESSSRDSLREQTLSKQTYHKEARNSWDSPAFSNDVIRKRHYRIGLNLFNKKPEKGVQYLIERGFVPDTPVGVAHFLLQRKGLSRQMIGEFLGNRQKQFNRDVLDCVVDEMDFSTMELDEALRKFQAHIRVQGEAQKVERLIEAFSQRYCICNPGVVRQFRNPDTIFILAFAIILLNTDMYSPNVKPERKMKLEDFIKNLRGVDDGEDIPREMLMGIYERIRKRELKTNEDHVSQVQKVEKLIVGKKPIGSLHPGLGCVLSLPHRRLVCYCRLFEVPDPNKPQKLGLHQREIFLFNDLLVVTKIFQKKKNSVTYSFRQSFSLYGMQVLLFENQYYPNGIRLTSSVPGADIKVLINFNAPNPQDRKKFTDDLRESIAEVQEMEKHRIESELEKQKGVVRPSMSQCSSLKKESGNGTLSRACLDDSYASGEGLKRSALSSSLRDLSEAGKRGRRSSAGSLESNVEFQPFEPLQPSVLCS [IQSEC1]	–	–	-0.0654	-0.0422
NEK6	–	–	0.1	-0.09
NISCH	–	–	-0.0187	0.0432
PCBD2	–	–	-0.0388	0.0587
PCIF1	–	–	0.0856	-0.0368
PRR12	–	–	0.163	0.0459
RAI1	–	–	-0.769	0.596
SOGA1	–	–	-0.0256	0.0556
SYNE1	–	–	-0.526	0.198
TAF1	–	–	-0.408	0.0526
WDR81	–	–	-0.0834	-0.333
WRN	–	–	-0.339	0.124
WWC1	–	–	-0.00567	-0.4
WWP1	–	–	-0.159	0.0121

Reference: the supplement of paper PMC5998384
